Results as given in patent US20160130329A1 (UNIVERSITY OF CHICAGO, published 2016).
Where two headings read alike, the source gives them in different places. Where no end group is shown, it is not given here. [ ]: non-standard residue; d: D form. Lys(Me3) = C[N+](C)(C)CCCC[C@H](N)C(=O)O

Key:
[1] = target: T1, H3K4me3 peptide (also: biotinylated, site not given here); experiment: yeast display of the scFv, peptide titration, flow cytometry
T1 peptide: ART[Lys(Me3)]QTARKSTGGYCD

[2] = target: T1, H3K4me3 peptide; experiment: as above
[3] = target: T1, H3K4me3 peptide; experiment: phage ELISA
[4] = target: T2, H3K36me3 peptide (K(me3) at H3 K36; K(biotin) near the C-terminus, as printed: SAPATGGVK-K(me3)-PHRYRPGG-K(biotin)-D); experiment: phage ELISA
T2 peptide: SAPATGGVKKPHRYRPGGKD

[5] = target: T1, H3K4me3 peptide; experiment: yeast display, flow cytometry [A]
[6] = target: T3, H3K27me3 peptide (trimethyl-lysine at K27 (histone H3 numbering); biotinylated through the GYCD tag); experiment: yeast display, flow cytometry [A]
T3 peptide: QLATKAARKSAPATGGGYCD

[7] = target: T4, H4K20me3 peptide (trimethyl-lysine at K20 (histone H4 numbering); biotinylated through the GYCD tag); experiment: phage ELISA [A]
T4 peptide: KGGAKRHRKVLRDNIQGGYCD

[8] = target: T3, H3K27me3 peptide; experiment: phage ELISA [B]
[9] = target: T4, H4K20me3 peptide; experiment: phage ELISA [B]
[10] = target: T3, H3K27me3 peptide; experiment: yeast display, flow cytometry [B]
[11] = target: T2, H3K36me3 peptide; experiment: yeast display, flow cytometry [B]

B1: scFv 4-5 (scFv)
scFv: EVQLVETGGGVVQPGRSLRLSCTASGFTFRDYWMSWVRQAPGKGLEWVADIKQDGSDKYYVDAVKGRFTISRDNAKSSLYLQMNSLGAEDTAVYYCARDFSRGSGWHFDLWGRGTLVTVSSGILGSGGGGSGGGGSGGGGSSYVLTQPPSVSVAPGQTARITCGGTNIGDISVHWYQQRPGQAPLVVVYDDSDRPSGIPERFSGSNSGNTATLTISRVEAGDEADYYCQVWDDSINAYVFGTGTKVTVL
notes: also called lead antibody; scFv 4-5 polypeptide
Kd [1]: 5.1 µM | Kd [2]: 5.1 µM

B2: 20F109 (scFv)
scFv: EVQLVETGGGVVQPGRSLRLSCTASGFTFRDYWMSWVRQAPGKGLEWVADINPDGITRYYIDAVKGRFTISRDNAKSSLYLQMNSLGAEDTAVYYCAREFHPGRYDWHFDLWGRGTLVTVSSSYVLTQPPSVSVAPGQTARITCGGTNISSSSVHWYQQRPGQAPLVVVYDDNYRPSGIPERFSGSNSGNTATLTISRVEAGDEADYYCQVWDDSINAYVFGTGTKVTVL
binding result [3]: no binding (tested: 100 nM peptide)

B3: 20F87 (scFv)
scFv: EVQLVETGGGVVQPGRSLRLSCTASGFTFRDYWMSWVRQAPGKGLEWVADINPDGITRYYIDAVKGRFTISRDNAKSSLYLQMNSLGAEDTAVYYCAREFYGSWHFDLWGRGTLVTVSSSYVLTQPPSVSVAPGQTARITCGGTNISHSSGDVHWYQQRPGQAPLVVVYYSYARPSGIPERFSGSNSGNTATLTISRVEAGDEADYYCQVWDDSINAYVFGTGTKVTVL
binding result [3]: no binding (tested: 100 nM peptide)

B4: 27F40 (scFv)
scFv: EVQLVETGGGVVQPGRSLRLSCTASGFTFRDYWMSWVRQAPGKGLEWVADINPDGITRYYIDAVKGRFTISRDNAKSSLYLQMNSLGAEDTAVYYCAREFTNVYGWHFDLWGRGTLVTVSSSYVLTQPPSVSVAPGQTARITCGGTNISNTYVHWYQQRPGQAPLVVVYSSPARPSGIPERFSGSNSGNTATLTISRVEAGDEADYYCQVWDDSINAYVFGTGTKVTVL
binding result [4]: no binding (tested: 100 nM peptide)

B5: 27F12 (scFv)
scFv: EVQLVETGGGVVQPGRSLRLSCTASGFTFRDYWMSWVRQAPGKGLEWVADINPDGITRYYIDAVKGRFTISRDNAKSSLYLQMNSLGAEDTAVYYCAREFTNAYGWHFDLWGRGTLVTVSSSYVLTQPPSVSVAPGQTARITCGGTNIISTYVHWYQQRPGQAPLVVVYAHSDRPSGIPERFSGSNSGNTATLTISRVEAGDEADYYCQVWDDSINAYVFGTGTKVTVL
binding result [4]: no binding (tested: 100 nM peptide)

B6: 27F52 (scFv)
scFv: EVQLVETGGGVVQPGRSLRLSCTASGFTFRDYWMSWVRQAPGKGLEWVADINPDGITRYYIDAVKGRFTISRDNAKSSLYLQMNSLGAEDTAVYYCAREFNNVYGWHFDLWGRGTLVTVSSSYVLTQPPSVSVAPGQTARITCGGTNINDTYVHWYQQRPGQAPLVVVYSSDPRPSGIPERFSGSNSGNTATLTISRVEAGDEADYYCQVWDDSINAYVFGTGTKVTVL
binding result [4]: no binding (tested: 100 nM peptide)

B7: 36H1 (scFv)
scFv: EVQLVETGGGVVQPGRSLRLSCTASGFTFRDYWMSWVRQAPGKGLEWVADISKEGKYMYYLDAVKGRFTISRDNAKSSLYLQMNSLGAEDTAVYYCARDLNYGAGWHFDLWGRGTLVTVSSSYVLTQPPSVSVAPGQTARITCGGTNIGDISVHWYQQRPGQAPLVVVYDDSDRPSGIPERFSGSNSGNTATLTISRVEAGDEADYYCQVWDDSINAYVFGTGTKVTVL
binding result [5]: no binding (tested: 500 nM) | binding result [6]: no binding (tested: 500 nM)

B8: 9H3 (scFv)
scFv: EVQLVETGGGVVQPGRSLRLSCTASGFTFRDYWMSWVRQAPGKGLEWVADISQDGESRYYVDAVKGRFTISRDNAKSSLYLQMNSLGAEDTAVYYCARDLLSGYGWHFDLWGRGTLVTVSSSYVLTQPPSVSVAPGQTARITCGGTNIGDISVHWYQQRPGQAPLVVVYDDSDRPSGIPERFSGSNSGNTATLTISRVEAGDEADYYCQVWDDSINAYVFGTGTKVTVL
binding result [7]: no binding (tested: 100 nM peptide)

B9: 4H1 (scFv)
scFv: EVQLVETGGGVVQPGRSLRLSCTASGFTFRDYWMSWVRQAPGKGLEWVADIGEHGSFSYYLDAVKGRFTISRDNAKSSLYLQMNSLGAEDTAVYYCARNFSRGYGWHFDLWGRGTLVTVSSSYVLTQPPSVSVAPGQTARITCGGTNIGDISVHWYQQRPGQAPLVVVYDDSDRPSGIPERFSGSNSGNTATLTISRVEAGDEADYYCQVWDDSINAYVFGTGTKVTVL
binding result [8]: no binding (tested: 100 nM peptide) | binding result [9]: no binding (tested: 100 nM peptide)

B10: 20H3 (scFv)
scFv: EVQLVETGGGVVQPGRSLRLSCTASGFTFRDYWMSWVRQAPGKGLEWVADISQEGSWAYYLDAVKGRFTISRDNAKSSLYLQMNSLGAEDTAVYYCARDFPHGSGWHFDLWGRGTLVTVSSSYVLTQPPSVSVAPGQTARITCGGTNIGDISVHWYQQRPGQAPLVVVYDDSDRPSGIPERFSGSNSGNTATLTISRVEAGDEADYYCQVWDDSINAYVFGTGTKVTVL
binding result [10]: no binding (tested: 500 nM) | binding result [11]: no binding (tested: 500 nM)

B11: 36H4 (scFv)
scFv: EVQLVETGGGVVQPGRSLRLSCTASGFTFRDHWMSWVRQAPGKGLEWVADISKEGKYMYYLDAVKGRFTISRDNAKSSLYLQMNSLGAEDTAVYYCARDLNYGAGWHFDVWGRGTLVTVSSSYVLTQPPSVSVAPGQTARITCGGTNIGDISVHWYQQRPGQAPLVVVYDDSDRPSGIPERFSGSNSGNTATLTISRVEAGDEADYYCQVWDDSINAYVFGTGTKVTVL
binding result [5]: no binding (tested: 500 nM) | binding result [6]: no binding (tested: 500 nM)

B12: 4H3 (scFv)
scFv: EVQLVETGGGVVQPGRSLRLSCTASGFTFRDNWMSWVRQAPGKGLEWVADIAEDGKAMYYIDAVKGRFTISRDNAKSSLYLQMNSLGAEDTAVYYCARVFSRGYGWHFDLWGRGTLVTVSSSYVLTQPPSVSVAPGQTARITCGGTNIGDISVHWYQQRPGQAPLVVVYDDSDRPSGIPERFSGSNSGNTATLTISRVEAGDEADYYCQVWDDSINAYVFGTGTKVTVL
binding result [9]: no binding (tested: 100 nM peptide)

B13: 4H2 (scFv)
scFv: EVQLVETGGGVVQPGRSLRLSCTASGFTFRDYWMSWVRQAPGKGLEWVADISKDGSASYYVDAVKGRFTISRDNAKSSLYLQMNSLGAEDTAVYYCARDFVSGYGWHFDLWGRGTLVTVSSSYVLTQPPSVSVAPGQTARITCGGTNIGDISVHWYQQRPGQAPLVVVYDDSDRPSGIPERFSGSNSGNTATLTISRVEAGDEADYYCQVWDDSINAYVFGTGTKVTVL
binding result [8]: no binding (tested: 100 nM peptide) | binding result [9]: no binding (tested: 100 nM peptide)

B14: 36H2 (scFv)
scFv: EVQLVETGGGVVQPGRSLRLSCTASGFTFRDHWMSWVRQAPGKGLEWVADISKEGKYMYYLDAVKGRFTISRDNAKSSLYLQMNSLGAEDTAVYYCARDLNYGAGWHFDLWGRGTLVTVSSSYVLTQPPSVSVAPGQTARITCGGTNIGDISVHWYQQRPGQAPLVVVYDDSDRPSGIPERFSGSNSGNTATLTISRVEAGDEADYYCQVWDDSINAYVFGTGTKVTVL
binding result [5]: no binding (tested: 500 nM) | binding result [6]: no binding (tested: 500 nM)

B15: 36H5 (scFv)
scFv: EVQLVETGGGVVQPGRSLRLSCTASGFTFRDYWVSWVRQAPGKGLEWVADISKEGKYMYYLDAVKGRFTISRDNAKSSLYLQMNSLGAEDTAVYYCARDLNYGAGWHFDLWGRGTLVTVSSSYVLTQPPSVSVAPGQTARITCGGTNIGDISVHWYQQRPGQAPLVVVYDDSDRPSGIPERFSGSNSGNTATLTISRVEAGDEADYYCQVWDDSINAYVFGTGTKVTVL
binding result [5]: no binding (tested: 500 nM) | binding result [6]: no binding (tested: 500 nM)

B16: 20F78 (scFv)
scFv: EVQLVETGGGVVQPGRSLRLSCTASGFTFRDYWMSWVRQAPGKGLEWVADINPDGITRYYIDAVKGRFTISRDNAKSSLYLQMNSLGAEDTAVYYCAREFPNNYGWHFDLWGRGTLVTVSSSYVLTQPPSVSVAPGQTARITCGGTNIDHRVPVHWYQQRPGQAPLVVVYAYSSRPSGIPERFSGSNSGNTATLTISRVEAGDEADYYCQVWDDSINAYVFGTGTKVTVL
binding result [3]: no binding (tested: 100 nM peptide)

B17: 20F94 (scFv)
scFv: EVQLVETGGGVVQPGRSLRLSCTASGFTFRDYWMSWVRQAPGKGLEWVADINPDGITRYYIDAVKGRFTISRDNAKSSLYLQMNSLGAEDTAVYYCAREFPYINIWHFDLWGRGTLVTVSSSYVLTQPPSVSVAPGQTARITCGGTNIADYTTVHWYQQRPGQAPLVVVYANSARPSGIPERFSGSNSGNTATLTISRVEAGDEADYYCQVWDDSINAYVFGTGTKVTVL
binding result [3]: no binding (tested: 100 nM peptide)
